Measured values as given in the nanobody polyreactivity screen of Harvey et al. (2022).

experiment: yeast display, Sf9 membrane polyspecificity reagent, FACS + sequencing; frameworks hold sequencing errors
In short: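 Galactose induction of a Saccharomyces cerevisiae BJ5465 synthetic nanobody display library ran 36–48 hours. The cells were then stained for 1 hour at 4 °C with 10% biotinylated, detergent-solubilized Sf9 membrane reagent, pulled down on streptavidin microbeads and FACS-sorted into low and high (top ~1%) gates on expression and reagent-binding fluorescence. Labels for polyreactivity follow the gate of origin.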

Question: With “QVQLVESGGGLVQAGGSLRLSCAASGYIFHLYAMGWYRQAPGKERELVAAISSGGRTYYADSVKGRFTISRDNAKNTVYLQMNSLKPEDTAVYYCAVRSYVNTAVGYYYWGQGTQVTVSS” as the sequence, how does the “polyreactivity (PSR sort gate)” value read?
Answer: high polyreactivity

Question: With “QVQLVESGGGLVQAGGSLRLSCAASGYIFHSYAMGWYRQAPGKERELVAAITSSGGSTYYADSVKGRFTISRDNAKNTVYLQMNSLKPEDTAVYYCAAEYYYVYPYYRSPKFDYWGQGTQVTVSS” as the sequence, how does the “polyreactivity (PSR sort gate)” value read?
Answer: high polyreactivity

Question: For “QVQLVESGGGLVQAGGSLRLSCAASGYIFKGNVMGWYRQAPGKERELVAAISSSGGRTYYADSVKWRFTISRDNAKNNVYLQMYSLKPEDTAVYYCNTKHRTKPTGPVDYWGQGTQVTVSS”, which “polyreactivity (PSR sort gate)” value is on record?
Answer: high polyreactivity

Question: Which “polyreactivity (PSR sort gate)” value does the source give for “QVQLVESGGGLVQAGGSLRLSCAASGYIFKPNTMGWYRQAPGKERELVAAITRGGRTKYADSVKGRFTISRDNAKNTVYLQMNSLKPEATAVYYCNKVRTVTTYEYWGQGTQVTVSS” here?
Answer: high polyreactivity

Question: Which “polyreactivity (PSR sort gate)” value does the source give for “QVQLVESGGGLVQAGGSLRLSCAASGYIFKRYAMGWYRQAPGKERELVAAISGNGGSTYYADSVKGRFTISRDNAKNTVYLQMNSLKPEDTAVYYCNKSGYYSPTSKGEYWGQGTQVTVSS” here?
Answer: low polyreactivity

Question: With “QVQLVESGGGLVQAGGSLRLSCAASGYIFKSYVMGWNRQEPGKESELVAAITWSGGSTYYADSVKGRFTISRDNAKNTVYLQMNSLKPEDTAVYYCAAYRRRYRTTYDYWGQGTQVTVSS” as the sequence, how does the “polyreactivity (PSR sort gate)” value read?
Answer: high polyreactivity

Question: Which “polyreactivity (PSR sort gate)” value does the source give for “QVQLVESGGGLVQAGGSLRLSCAASGYIFKYYAMGWYIQAPGKERELVASITSGGRTNYADSVKGRFTISRDNAKNTVYLQMNSLKPEDTAVYYCAATSKYQQDPRRYDYWGHGTQVTVSS” here?
Answer: high polyreactivity

Question: For “QVQLVESGGGLVQAGGSLRLSCAASGYIFLANAMGWYRQAPGKVRELVAAITSGGGGTYYADSVKGRFTFSRDNAKNTVYLQMNSLKPEDTAVYYCAADHGRDGSSFEYWGQGTQVTVSS”, which “polyreactivity (PSR sort gate)” value is on record?
Answer: low polyreactivity

Question: With “QVQLVESGGGLVQAGGSLRLSCAASGYIFLRNAMGWSRQAPGKERELVASISSDDTSTHYADSVKGRFTISRDNAKNTVYLQMNSLKPEDTAVYYCAARNTPAYIDYNYWGQGTQVTVSS” as the sequence, how does the “polyreactivity (PSR sort gate)” value read?
Answer: low polyreactivity

Question: With “QVQLVESGGGLVQAGGSLRLSCAASGYIFPGNAMGWYRQAPGKERELVAAINWSGTRTYYADSVKGRFTISRDNAKNTVYLQLNSLKPEDTAVYYCNRVWRVPIETYTRYDYWGQGTQVTVSS” as the sequence, how does the “polyreactivity (PSR sort gate)” value read?
Answer: high polyreactivity

Question: For “QVQLVESGGGLVQAGGSLRLSCAASGYIFRGYVMGWYRQAPGKERELVAAISYGDGGTYYADSVKGRFTLSRDNAKNTVYLQMNSLKPEDTAVYYCAAPPYSFWGDYYSAGYYYWGQGTQVTVSS”, which “polyreactivity (PSR sort gate)” value is on record?
Answer: low polyreactivity

Question: Which “polyreactivity (PSR sort gate)” value does the source give for “QVQLVESGGGLVQAGGSLRLSCAASGYIFRIYAMGWYRQAPGKERELVARISSGGGTNYADSVKGRFTISRDNAKNTVYLQMNSLKPEDTAVYYCNAGYGSQRGGVFFYRMGYWGQGTQVTVSS” here?
Answer: high polyreactivity

Question: With “QVQLVESGGGLVQAGGSLRLSCAASGYIFRNVMGWYRQAPGKERELVATISGSGGSTYYADSVKGRFTISRDNAKNTVYLQMNSLKPEDTAVYDCSKRWYRLGRYGGYDYWGQGTQVTVSS” as the sequence, how does the “polyreactivity (PSR sort gate)” value read?
Answer: high polyreactivity

Question: With “QVQLVESGGGLVQAGGSLRLSCAASGYIFRWYAMGWYRQAPGKERELVARITNGARTYYADSVKGRFTISRDNAKNTVYLQMNSLKPEDTAVYYCAATVPPTYRRYYYWGQGTQVTVSS” as the sequence, how does the “polyreactivity (PSR sort gate)” value read?
Answer: high polyreactivity

Question: Which “polyreactivity (PSR sort gate)” value does the source give for “QVQLVESGGGLVQAGGSLRLSCAASGYIFRYYAMGRYRQAPGKERELVAAITARAGRTYYADSVKGRFTISRDNAKNTVYLQMTSLKPEDTAVYYCAAVRTKVWRGPEMDYWGQGTQVNVSS” here?
Answer: high polyreactivity

Question: For “QVQLVESGGGLVQAGGSLRLSCAASGYIFRYYAMGWYRQAPGKEREFVAAISRNGGSTYYADSVKGRFTISRDNAKNTVYLQMNSLKPEDTAVYYCNKRVGFLYKYDYWGQGTQVTVSS”, which “polyreactivity (PSR sort gate)” value is on record?
Answer: high polyreactivity

Question: With “QVQLVESGGGLVQAGGSLRLSCAASGYIFSLNGMGWYRQAPGKVRELVAAITVSGGRTYYADSVKGRFTISRDNAKNTVYLQMNSLKPEDTAVYYCAKRGKYSYWPYYKYDYWGQGTQVTVSS” as the sequence, how does the “polyreactivity (PSR sort gate)” value read?
Answer: high polyreactivity

Question: With “QVQLVESGGGLVQAGGSLRLSCAASGYIFTFYTMGWYRQEPGKERDLVAAISQTGGRTYYADSVKGRFTISRDNAKNTVYLEMNSLKPEDTAVYYCAARSKRLAHDYWGQGTQVTVSS” as the sequence, how does the “polyreactivity (PSR sort gate)” value read?
Answer: high polyreactivity

Question: For “QVQLVESGGGLVQAGGSLRLSCAASGYIFTGNAMGWYRQAPGKERELVAAIDSGGSTYADSVKGRFTISRDNAKNTVYLQMNSLKPEDTAVYYCNADQNEDTYLSYYGDYDYWGQGTQVTVTS”, which “polyreactivity (PSR sort gate)” value is on record?
Answer: low polyreactivity

Question: Which “polyreactivity (PSR sort gate)” value does the source give for “QVQLVESGGGLVQAGGSLRLSCAASGYIFTTNAMGWYRQAPGKERELVAAISSSGGSTYYADSVKGRFTISRDNAKNTVYLQMNSLKPEDTAVYYCAVRRSTGSRSPPMYYWGQGTQVTVSS” here?
Answer: high polyreactivity

Question: Which “polyreactivity (PSR sort gate)” value does the source give for “QVQLVESGGGLVQAGGSLRLSCAASGYIFTYYAMGWYRQAPGKERELVAAISTSGTSTYYADSVKGRFTISRDNAKNTVYLQMNSLKPEDTAVYYCAKRSGARHRLMDYWGQGTQVTVSS” here?
Answer: low polyreactivity

Question: For “QVQLVESGGGLVQAGGSLRLSCAASGYIFVIYAMGRYRQAPGKERELVAAITDGGDNTYYADSVKGRFTISRDNAKNTVYLHMNSLKPEDTAVYYCAADVYLPIAAWEGSLEYYYWGQGTQVTVSS”, which “polyreactivity (PSR sort gate)” value is on record?
Answer: high polyreactivity

Question: For “QVQLVESGGGLVQAGGSLRLSCAASGYIFVNYGMGWYRQAPGKERELVAVITNGGRTNYADSVKGRFTISRDNAKNTVYLQMNSLKPEDTAVYYCNARSFRQYYYWGQGTQVTVSS”, which “polyreactivity (PSR sort gate)” value is on record?
Answer: high polyreactivity

Question: With “QVQLVESGGGLVQAGGSLRLSCAASGYIFVVNAMGLDRQAPGKERELVAAIDWGGGSTYADSVKGRFTISRDNAKNTVYLQMNSLKPEDTAVYYCAADLWPYPNDYWGQGTQVTVSS” as the sequence, how does the “polyreactivity (PSR sort gate)” value read?
Answer: low polyreactivity

Question: With “QVQLVESGGGLVQAGGSLRLSCAASGYIFVVNAMGWYRQAPGKERELVAAIDWGGGSTYADSVKGRFTISRDNAKNTVYLQMYSLKPEDTAVYYCAADLWPYPNDYWGQGTQVTVSS” as the sequence, how does the “polyreactivity (PSR sort gate)” value read?
Answer: low polyreactivity

Question: For “QVQLVESGGGLVQAGGSLRLSCAASGYIFWSNTMGWYRQAPGKERELVAAISQSTASTYYADSVKGRFTISRDNAKNTVYLQMNSLKPEDTAVYYCAAYYNFGDYEYDYWGQGTQVTVSS”, which “polyreactivity (PSR sort gate)” value is on record?
Answer: low polyreactivity

Question: Which “polyreactivity (PSR sort gate)” value does the source give for “QVQLVESGGGLVQAGGSLRLSCAASGYIFYANAMGWYRQAPGKERELVASISTGGNTNYADSVKGRFTISRDNAKNTVYLQMKSLKPEDTAVYYCAVRSTVPYLWRTPVTRDYWGQGTQVTVSS” here?
Answer: low polyreactivity

Question: Which “polyreactivity (PSR sort gate)” value does the source give for “QVQLVESGGGLVQAGGSLRLSCAASGYIFYIYAKGWNRQAPGKERELVAAISYSDGTTYYADSVKGRFTISRDNAKNTVYLQMNSLKAEDTAVYYCAADLWVGLVSLWDGYVEYDYWGQGTQVTVSS” here?
Answer: low polyreactivity

Question: With “QVQLVESGGGLVQAGGSLRLSCAASGYIFYYNTMGWYRQAPGKERELVAAISATGGRTYYADSVKGRFTISRDNAKNTVYLQMNSLKPEDTAVYYCAKRGISPYGYWGQGTQVTVSS” as the sequence, how does the “polyreactivity (PSR sort gate)” value read?
Answer: high polyreactivity

Question: Which “polyreactivity (PSR sort gate)” value does the source give for “QVQLVESGGGLVQAGGSLRLSCAASGYIFYYYAMGWYRQAPGKERELVAAINRSGTSTYYADSVKGRFTISRDNAKNTVYLQMNSLKPEDTAVYYCAAVAGNKLYYWGQGTQVTVSS” here?
Answer: high polyreactivity

Question: Which “polyreactivity (PSR sort gate)” value does the source give for “QVQLVESGGGLVQAGGSLRLSCAASGYIIGRYVMGWYRQAPGNERELVAAITASGGSTNYADSVKGRFTISRDNAKNTVYLQMNSLKPEDTAVYYCAADYSWYYFDFEYWGQGTQVTVSS” here?
Answer: high polyreactivity

Question: With “QVQLVESGGGLVQAGGSLRLSCAASGYILFAYAMGWYRQAPGKERALVATITTSGGITYYADSVKGRFTISRDNAKNTVYLQMNSLKPEDTAVYYCAAAEGGGLVTYDYWGQGTQVTVSS” as the sequence, how does the “polyreactivity (PSR sort gate)” value read?
Answer: low polyreactivity

Question: For “QVQLVESGGGLVQAGGSLRLSCAASGYILQINAMGWYRQAPGKERELVAAISISGGNTYYADSVKGRFTISRDNAKNTVYLQMNSLKPEDTAVYYCAAYRYYSYLVRYGLLLAYYYWGQGTQVTVSS”, which “polyreactivity (PSR sort gate)” value is on record?
Answer: low polyreactivity

Question: Which “polyreactivity (PSR sort gate)” value does the source give for “QVQLVESGGGLVQAGGSLRLSCAASGYILWNAIGWYRQAPGKERELVAAITSGGSTYYADSVKGRFSISRDNAKNTVYLQMNSRKPEDTAVYDCNQESYFDTYRRYDSWGQGTQETVSS” here?
Answer: low polyreactivity

Question: With “QVQLVESGGGLVQAGGSLRLSCAASGYILYPYAMGWYRQAPGKERELVAAIRQRGGSTYYADSVKGRFTISRDYAKNTVYLQMNSLKPEDTAVYYCAAYLSPKRALTRGYGYWGQGTQVTVSS” as the sequence, how does the “polyreactivity (PSR sort gate)” value read?
Answer: high polyreactivity

Question: For “QVQLVESGGGLVQAGGSLRLSCAASGYISDTNAMGWYRQAPGKEREFVAVISSSVGSTYYADSVKGRFTISRDNAKNTVYLQMNSLKPEDTAVYYCNAEFNTVFLYWSLDSVRGYDYWGQGTQVTVSS”, which “polyreactivity (PSR sort gate)” value is on record?
Answer: high polyreactivity

Question: Which “polyreactivity (PSR sort gate)” value does the source give for “QVQLVESGGGLVQAGGSLRLSCAASGYIVRNAMGWYRQAPGKERELVAAISRRGGSTYYADSVKGRFTISRDNAKNTVYLQMNSLKPEDTAVYYCAKDKVIPSFDADYYYWGQGTQVTVSS” here?
Answer: high polyreactivity

Question: For “QVQLVESGGGLVQAGGSLRLSCAASGYIVTSYTMGWYIQAPGKERELVAAISASDGSTYADSVKGRFTISRDNAKNTVYLQMNSLKPEDTAVYYCNKAAYGGHRTSEQVGWVYLYDYWGQGTQVTVSS”, which “polyreactivity (PSR sort gate)” value is on record?
Answer: low polyreactivity

Question: For “QVQLVESGGGLVQAGGSLRLSCAASGYIYYYYAMGWYRQAPVKERELVAAITFSGGSTYYADSVKGRFTISRDNAKNTVYLQMNSLKPEDTAVYYCAKVELRDSALLGSDEYDYLGQGTQVTVSS”, which “polyreactivity (PSR sort gate)” value is on record?
Answer: low polyreactivity

Question: With “QVQLVESGGGLVQAGGSLRLSCAASGYLLGHYAMGWYRQATGKERELVAAISWSGGSTSYADSVKGRFTISRDKAKITFYLQMNSLKREDTAVYDCASAYYAYSRHAGGYWGQGTQVTVSS” as the sequence, how does the “polyreactivity (PSR sort gate)” value read?
Answer: low polyreactivity

Question: With “QVQLVESGGGLVQAGGSLRLSCAASGYNFGWYAMGWYRQAPGKERELVAGISSAGSTNYADSVKGRFTISRDNAKNTVYLQMNSLKPEDTSVDYCARDKWGLRYAPTVDYWGQGTQVTVSS” as the sequence, how does the “polyreactivity (PSR sort gate)” value read?
Answer: high polyreactivity

Question: For “QVQLVESGGGLVQAGGSLRLSCAASGYSFQKYGMGWYRQAPGKERELVAAITRSSGNTYYADSVKGRFTISRDTAKNTVYLQMNSLKPEDTAVYDCAAFYWGGVKYNYWGQGTQVTVSS”, which “polyreactivity (PSR sort gate)” value is on record?
Answer: high polyreactivity

Question: With “QVQLVESGGGLVQAGGSLRLSCAASGYSFRIYAMGWYRQAPGKERELVATITNGGSTHYADSEKGRFTISRDNAKNTVYLQMNSLKPEDTAVYYCAAYLPGWELRDYGYWGQGTQVTVSS” as the sequence, how does the “polyreactivity (PSR sort gate)” value read?
Answer: high polyreactivity
